Reference: IntAct's records for PubMed 29892012

B1: Angio-associated migratory cell protein (Homo sapiens), Q13685 (parent)
chain: MESESESGAAADTPPLETLSFHGDEEIIEVVELDPGPPDPDDLAQEMEDVDFEEEEEEEGNEEGWVLEPQEGVVGSMEGPDDSEVTFALHSASVFCVSLDPKTNTLAVTGGEDDKAFVWRLSDGELLFECAGHKDSVTCAGFSHDSTLVATGDMSGLLKVWQVDTKEEVWSFEAGDLEWMEWHPRAPVLLAGTADGNTWMWKVPNGDCKTFQGPNCPATCGRVLPDGKRAVVGYEDGTIRIWDLKQGSPIHVLKGTEGHQGPLTCVAANQDGSLILTGSVDCQAKLVSATTGKVVGVFRPETVASQPSLGEGEESESNSVESLGFCSVMPLAAVGYLDGTLAIYDLATQTLRHQCQHQSGIVQLLWEAGTAVVYTCSLDGIVRLWDARTGRLLTDYRGHTAEILDFALSKDASLVVTTSGDHKAKVFCVQRPDR
partner: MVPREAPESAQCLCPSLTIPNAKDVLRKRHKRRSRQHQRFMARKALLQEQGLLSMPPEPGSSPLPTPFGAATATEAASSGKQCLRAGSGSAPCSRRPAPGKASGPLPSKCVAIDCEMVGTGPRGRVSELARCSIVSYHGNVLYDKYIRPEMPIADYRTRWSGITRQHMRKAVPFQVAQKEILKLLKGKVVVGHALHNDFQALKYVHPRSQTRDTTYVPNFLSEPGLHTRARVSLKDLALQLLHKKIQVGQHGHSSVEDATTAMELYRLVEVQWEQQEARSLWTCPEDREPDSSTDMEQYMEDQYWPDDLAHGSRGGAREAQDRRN
B2: Late cornified envelope protein 1B (Homo sapiens), Q5T7P3 (parent)
chain: MSCQQNQQQCQPPPKCIPKCPPKCLTPRCPPKCPPKCPPVSSCCSVSSGGCCGSSSGGSCGSSSGGCCSSGGGGCCLSHHRRRRSHCHRPQSSGCCSQPSGGSSCCGGGSGQHSGGCC
B3: Melanoma-associated antigen 8 (Homo sapiens), P43361 (parent)
chain: MLLGQKSQRYKAEEGLQAQGEAPGLMDVQIPTAEEQKAASSSSTLIMGTLEEVTDSGSPSPPQSPEGASSSLTVTDSTLWSQSDEGSSSNEEEGPSTSPDPAHLESLFREALDEKVAELVRFLLRKYQIKEPVTKAEMLESVIKNYKNHFPDIFSKASECMQVIFGIDVKEVDPAGHSYILVTCLGLSYDGLLGDDQSTPKTGLLIIVLGMILMEGSRAPEEAIWEALSVMGLYDGREHSVYWKLRKLLTQEWVQENYLEYRQAPGSDPVRYEFLWGPRALAETSYVKVLEHVVRVNARVRISYPSLHEEALGEEKGV
partner: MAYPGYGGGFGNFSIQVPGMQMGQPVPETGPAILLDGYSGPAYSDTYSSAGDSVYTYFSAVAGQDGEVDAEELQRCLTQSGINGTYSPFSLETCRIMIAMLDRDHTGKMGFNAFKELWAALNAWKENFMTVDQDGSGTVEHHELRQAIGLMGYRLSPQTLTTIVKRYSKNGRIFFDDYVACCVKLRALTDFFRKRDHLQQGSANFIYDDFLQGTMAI
B4: Zinc finger and BTB domain-containing protein 49 (Homo sapiens), Q6ZSB9 (parent)
chain: MDPVATHSCHLLQQLHEQRIQGLLCDCMLVVKGVCFKAHKNVLAAFSQYFRSLFQNSSSQKNDVFHLDVKNVSGIGQILDFMYTSHLDLNQDNIQVMLDTAQCLQVQNVLSLCHTFLKSATVVQPPGMPCNSTLSLQSTLTPDATCVISENYPPHLLQECSADAQQNKTLDESHPHASPSVNRHHSAGEISKQAPDTSDGSCTELPFKQPNYYYKLRNFYSKQYHKHAAGPSQERVVEQPFAFSTSTDLTTVESQPCAVSHSECILESPEHLPSNFLAQPVNDSAPHPESDATCQQPVKQMRLKKAIHLKKLNFLKSQKYAEQVSEPKSDDGLTKRLESASKNTLEKASSQSAEEKESEEVVSCENFNCISETERPEDPAALEDQSQTLQSQRQYACELCGKPFKHPSNLELHKRSHTGEKPFECNICGKHFSQAGNLQTHLRRHSGEKPYICEICGKRFAASGDVQRHIIIHSGEKPHLCDICGRGFSNFSNLKEHKKTHTADKVFTCDECGKSFNMQRKLVKHRIRHTGERPYSCSACGKCFGGSGDLRRHVRTHTGEKPYTCEICNKCFTRSAVLRRHKKMHCKAGDESPDVLEELSQAIETSDLEKSQSSDSFSQDTSVTLMPVSVKLPVHPVENSVAEFDSHSGGSYCKLRSMIQPHGVSDQEKLSLDPGKLAKPQMQQTQPQAYAYSDVDTPAGGEPLQADGMAMIRSSLAALDNHGGDPLGSRASSTTYRNSEGQFFSSMTLWGLAMKTLQNENELDQ
B5: Late cornified envelope protein 1B (Homo sapiens), Q5T7P3 (parent)
chain: B2 chain
partner: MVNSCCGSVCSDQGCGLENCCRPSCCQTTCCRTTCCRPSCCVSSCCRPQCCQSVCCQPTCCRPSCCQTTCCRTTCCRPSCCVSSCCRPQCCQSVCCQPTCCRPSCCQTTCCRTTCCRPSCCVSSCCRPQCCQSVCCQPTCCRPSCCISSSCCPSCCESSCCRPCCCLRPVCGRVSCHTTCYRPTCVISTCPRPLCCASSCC
B6: Abl interactor 2 (Homo sapiens), Q9NYB9 (parent)
chain: MAELQMLLEEEIPGGRRALFDSYTNLERVADYCENNYIQSADKQRALEETKAYTTQSLASVAYLINTLANNVLQMLDIQASQLRRMESSINHISQTVDIHKEKVARREIGILTTNKNTSRTHKIIAPANLERPVRYIRKPIDYTILDDIGHGVKWLLRFKVSTQNMKMGGLPRTTPPTQKPPSPPMSGKGTLGRHSPYRTLEPVRPPVVPNDYVPSPTRNMAPSQQSPVRTASVNQRNRTYSSSGSSGGSHPSSRSSSRENSGSGSVGVPIAVPTPSPPSVFPAPAGSAGTPPLPATSASAPAPLVPATVPSSTAPNAAAGGAPNLADGFTSPTPPVVSSTPPTGHPVQFYSMNRPASRHTPPTIGGSLPYRRPPSITSQTSLQNQMNGGPFYSQNPVSDTPPPPPPVEEPVFDESPPPPPPPEDYEEEEAAVVEYSDPYAEEDPPWAPRSYLEKVVAIYDYTKDKEDELSFQEGAIIYVIKKNDDGWYEGVMNGVTGLFPGNYVESIMHYSE
partner: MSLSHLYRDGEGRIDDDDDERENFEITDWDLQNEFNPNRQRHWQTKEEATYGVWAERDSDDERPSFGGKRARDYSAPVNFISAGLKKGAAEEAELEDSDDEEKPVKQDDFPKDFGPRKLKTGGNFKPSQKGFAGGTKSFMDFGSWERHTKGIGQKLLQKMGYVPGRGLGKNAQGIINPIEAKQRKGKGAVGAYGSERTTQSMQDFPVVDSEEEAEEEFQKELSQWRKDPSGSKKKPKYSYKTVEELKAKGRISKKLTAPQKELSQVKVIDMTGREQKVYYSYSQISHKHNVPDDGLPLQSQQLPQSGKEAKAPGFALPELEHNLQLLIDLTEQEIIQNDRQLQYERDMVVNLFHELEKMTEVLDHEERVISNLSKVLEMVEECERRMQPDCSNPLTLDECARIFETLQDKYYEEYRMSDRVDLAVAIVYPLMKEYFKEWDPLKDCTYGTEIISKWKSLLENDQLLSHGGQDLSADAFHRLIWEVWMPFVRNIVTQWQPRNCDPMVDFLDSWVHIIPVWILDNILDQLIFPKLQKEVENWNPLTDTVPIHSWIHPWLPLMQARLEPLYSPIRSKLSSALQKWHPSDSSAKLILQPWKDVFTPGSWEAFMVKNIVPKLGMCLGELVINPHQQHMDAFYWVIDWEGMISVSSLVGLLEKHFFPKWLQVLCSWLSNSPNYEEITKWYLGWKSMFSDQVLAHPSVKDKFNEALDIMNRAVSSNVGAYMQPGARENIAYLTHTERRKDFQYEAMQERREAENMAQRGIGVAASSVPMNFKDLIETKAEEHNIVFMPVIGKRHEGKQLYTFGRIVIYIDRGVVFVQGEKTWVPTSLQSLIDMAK
B7: Tumor suppressor candidate 2 (Homo sapiens), O75896 (parent)
chain: MGASGSKARGLWPFASAAGGGGSEAAGAEQALVRPRGRAVPPFVFTRRGSMFYDEDGDLAHEFYEETIVTKNGQKRAKLRRVHKNLIPQGIVKLDHPRIHVDFPVILYEV
B8: Late cornified envelope protein 1B (Homo sapiens), Q5T7P3 (parent)
chain: B2 chain
partner: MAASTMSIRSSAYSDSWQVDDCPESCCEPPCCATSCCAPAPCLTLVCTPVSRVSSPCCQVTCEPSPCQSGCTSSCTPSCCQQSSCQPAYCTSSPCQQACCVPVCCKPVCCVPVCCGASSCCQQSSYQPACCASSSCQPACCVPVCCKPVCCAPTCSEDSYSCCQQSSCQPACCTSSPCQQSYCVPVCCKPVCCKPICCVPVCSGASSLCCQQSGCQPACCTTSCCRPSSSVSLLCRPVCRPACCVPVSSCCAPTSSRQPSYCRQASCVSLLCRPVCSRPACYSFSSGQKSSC
B9: U3 small nucleolar RNA-associated protein 25 homolog (Homo sapiens), Q68CQ4 (parent)
chain: MGKRGSRSQSQLLNTLTKKQKKHLRDFGEEHPFYDRVSRKEAKPQICQLSESSDSSDSESDSESEPQQVSGYHRLLATLKNVSEEEEEDEEEEEEEDSIVDDAEMNDEDGGSDVSVEEEMAAESTESPENVALSADPEGKEDGEEPPGTSQTSPEEFTDAKHESLFSLETNFLEEESGDNSSLKASQDPFLQHVNKELKEKAIQAVATNPKTTHELKWPILGQLFFSSKFQKLETFKPPKDIDLKSLHLQKPLESTWTKTNSQFLSGPQKSSSPFTPLQKELFLIMNSYRDLFYPERTALKNGEEIRHVYCLHVINHILKANAQVLGNNSRRRSQKFGVGDDDDFRDQGLTRPKVLIVVPFREAALRVVQLFISLLEGDSKKKIIVSNKKRFQGEYGSDPEERPPNLKRPEDYEAVFVGNIDDHFRIGVAILQRSIRLYAPFYSSDILIASPLGLRTIIGGEGEKKRDFDFLSSIELLIIDQADIYLMQNWEHVLHLMNHMNLLPLDSHGVDFSRVRMWSLNNWSKYYRQTLLFGALQDAQINSVFNKYCVNMQGQVAVRNVPMTGSISHVLVQLPHVFQRMEAENLASVIDARFNFFVNKILPQYRDAVMSHTLIYIPSYFDFVRLRNYFKKEELNFTHICEYTQKSGVSRARHFFLQGEKQFLLFTERFHFYKRYTIKGIRNLIFYELPTYPHFYSEICNMLRATNRGEEATWTCTVLYSKYDAQRLAAVVGVERAAQMLQSNKNVHLFITGEK
partner: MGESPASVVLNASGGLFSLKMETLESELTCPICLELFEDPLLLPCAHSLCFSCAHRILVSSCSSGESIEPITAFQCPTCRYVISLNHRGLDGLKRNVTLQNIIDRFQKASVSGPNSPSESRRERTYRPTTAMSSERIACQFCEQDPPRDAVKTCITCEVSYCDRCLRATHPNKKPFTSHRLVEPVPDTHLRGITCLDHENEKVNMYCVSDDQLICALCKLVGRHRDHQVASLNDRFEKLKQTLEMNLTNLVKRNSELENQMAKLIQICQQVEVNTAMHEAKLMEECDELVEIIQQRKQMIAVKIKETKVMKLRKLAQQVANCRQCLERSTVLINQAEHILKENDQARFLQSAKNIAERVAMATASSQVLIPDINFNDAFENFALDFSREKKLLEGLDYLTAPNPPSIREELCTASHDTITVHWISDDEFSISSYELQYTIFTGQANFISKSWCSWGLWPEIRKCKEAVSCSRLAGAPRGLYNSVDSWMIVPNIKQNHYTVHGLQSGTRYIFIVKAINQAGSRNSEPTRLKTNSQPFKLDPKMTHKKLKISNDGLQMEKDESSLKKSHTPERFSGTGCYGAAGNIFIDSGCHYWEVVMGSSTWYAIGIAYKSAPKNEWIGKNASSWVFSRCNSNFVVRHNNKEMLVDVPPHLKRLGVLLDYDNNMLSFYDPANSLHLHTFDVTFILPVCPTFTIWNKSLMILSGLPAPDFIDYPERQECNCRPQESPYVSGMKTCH

Variants of: B1
Conditions: with aen_human AEN

Row | effect of a mutation on the interaction | Variant
1 | with no effect | I343F

Variants of: B2
Conditions: with kr108_human KRTAP10-8, P60410
Chain of kr108_human KRTAP10-8, P60410 (P60410 whole entry): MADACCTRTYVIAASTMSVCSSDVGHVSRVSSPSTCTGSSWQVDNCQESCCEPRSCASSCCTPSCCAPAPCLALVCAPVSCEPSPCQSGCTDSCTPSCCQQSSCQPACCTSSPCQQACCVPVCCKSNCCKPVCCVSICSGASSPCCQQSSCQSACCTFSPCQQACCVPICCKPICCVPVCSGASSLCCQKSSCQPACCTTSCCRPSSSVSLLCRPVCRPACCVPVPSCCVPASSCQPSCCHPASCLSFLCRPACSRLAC

Row | effect of a mutation on the interaction | Variant
2 | disrupting interaction strength | C16Y

Variants of: B2
Conditions: with kr103_human KRTAP10-3, P60369
Chain of kr103_human KRTAP10-3, P60369 (P60369 whole entry): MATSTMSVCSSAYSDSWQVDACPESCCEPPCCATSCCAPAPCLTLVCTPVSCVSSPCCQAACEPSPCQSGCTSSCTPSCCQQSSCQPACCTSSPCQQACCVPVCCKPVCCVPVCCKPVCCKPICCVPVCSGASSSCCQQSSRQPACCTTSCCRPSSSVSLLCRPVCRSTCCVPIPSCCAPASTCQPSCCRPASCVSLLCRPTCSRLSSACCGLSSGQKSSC

Row | effect of a mutation on the interaction | Variant
3 | disrupting interaction strength | C16Y

Variants of: B2
Conditions: with kr101_human KRTAP10-1, P60331
Chain of kr101_human KRTAP10-1, P60331 (P60331 whole entry): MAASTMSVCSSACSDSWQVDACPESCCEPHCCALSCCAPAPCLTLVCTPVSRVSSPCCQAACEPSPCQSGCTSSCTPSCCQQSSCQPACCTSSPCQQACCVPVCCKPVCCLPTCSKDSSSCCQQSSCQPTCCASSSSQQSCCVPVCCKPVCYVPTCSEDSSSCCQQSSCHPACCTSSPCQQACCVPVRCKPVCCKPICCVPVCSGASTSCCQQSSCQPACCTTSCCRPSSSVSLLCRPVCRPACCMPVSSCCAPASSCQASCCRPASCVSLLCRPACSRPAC

Row | effect of a mutation on the interaction | Variant
4 | with no effect | C16Y

Variants of: B2
Conditions: with hxa1_human HOXA1, P49639
Chain of hxa1_human HOXA1, P49639 (P49639 whole entry): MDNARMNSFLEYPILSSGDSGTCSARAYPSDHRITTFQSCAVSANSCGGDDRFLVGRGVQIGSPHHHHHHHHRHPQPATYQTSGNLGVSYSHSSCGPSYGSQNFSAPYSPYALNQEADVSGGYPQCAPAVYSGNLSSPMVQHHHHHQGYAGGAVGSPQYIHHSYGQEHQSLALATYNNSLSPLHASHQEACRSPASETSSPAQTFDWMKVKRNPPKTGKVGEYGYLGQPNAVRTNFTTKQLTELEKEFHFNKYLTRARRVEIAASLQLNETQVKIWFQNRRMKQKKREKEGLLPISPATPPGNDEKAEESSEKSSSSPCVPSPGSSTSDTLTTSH

Row | effect of a mutation on the interaction | Variant
5 | with no effect | C16Y

Variants of: B2
Conditions: with kr105_human KRTAP10-5, P60370
Chain of kr105_human KRTAP10-5, P60370 (P60370 whole entry): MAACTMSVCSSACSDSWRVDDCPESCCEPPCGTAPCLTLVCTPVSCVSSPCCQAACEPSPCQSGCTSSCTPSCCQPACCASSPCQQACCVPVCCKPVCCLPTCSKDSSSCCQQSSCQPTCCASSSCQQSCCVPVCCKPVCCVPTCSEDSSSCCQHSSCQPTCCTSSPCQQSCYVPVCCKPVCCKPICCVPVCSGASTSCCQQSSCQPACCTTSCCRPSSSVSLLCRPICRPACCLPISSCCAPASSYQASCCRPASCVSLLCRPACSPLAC

Row | effect of a mutation on the interaction | Variant
6 | disrupting interaction strength | C16Y

Variants of: B2
Conditions: with mdfi_human MDFI
Target sequence in this assay (Q99750 whole entry): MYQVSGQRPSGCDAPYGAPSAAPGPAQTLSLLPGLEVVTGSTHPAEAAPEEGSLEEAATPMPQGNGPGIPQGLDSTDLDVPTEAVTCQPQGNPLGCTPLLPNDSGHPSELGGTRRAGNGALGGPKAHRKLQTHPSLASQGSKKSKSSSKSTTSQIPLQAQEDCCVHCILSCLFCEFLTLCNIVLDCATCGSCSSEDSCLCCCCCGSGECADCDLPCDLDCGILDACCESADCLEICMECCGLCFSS

Row | effect of a mutation on the interaction | Variant
7 | disrupting interaction strength | C16Y

Variants of: B2
Conditions: with otx1_human OTX1, P32242
Chain of otx1_human OTX1, P32242 (P32242 whole entry): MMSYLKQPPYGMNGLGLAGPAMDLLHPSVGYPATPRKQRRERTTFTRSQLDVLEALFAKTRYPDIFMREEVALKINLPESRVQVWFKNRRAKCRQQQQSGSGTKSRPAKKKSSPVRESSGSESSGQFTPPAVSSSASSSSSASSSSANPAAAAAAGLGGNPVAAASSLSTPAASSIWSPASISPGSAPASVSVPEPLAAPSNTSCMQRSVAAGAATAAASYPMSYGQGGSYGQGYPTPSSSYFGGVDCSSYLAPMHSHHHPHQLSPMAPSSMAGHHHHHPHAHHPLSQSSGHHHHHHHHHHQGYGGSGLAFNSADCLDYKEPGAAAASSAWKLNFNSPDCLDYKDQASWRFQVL

Row | effect of a mutation on the interaction | Variant
8 | with no effect | C16Y

Variants of: B2
Conditions: with kra32_human KRTAP3-2, Q9BYR7
Chain of kra32_human KRTAP3-2, Q9BYR7 (Q9BYR7 whole entry): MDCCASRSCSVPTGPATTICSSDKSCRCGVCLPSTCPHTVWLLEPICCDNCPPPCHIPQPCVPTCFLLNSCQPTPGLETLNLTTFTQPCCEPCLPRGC

Row | effect of a mutation on the interaction | Variant
9 | with no effect | C16Y

Variants of: B2
Conditions: with nt2na_human NOTCH2NLA

Row | effect of a mutation on the interaction | Variant
10 | with no effect | C16Y

Variants of: B3
Conditions: with gran_human GCA

Row | effect of a mutation on the interaction | Variant
11 | with no effect | R218C

Variants of: B4
Conditions: with gopc_human GOPC

Row | effect of a mutation on the interaction | Variant
12 | with no effect | D88V

Variants of: B5
Conditions: with kr412_human KRTAP4-12, Q9BQ66

Row | effect of a mutation on the interaction | Variant
13 | disrupting interaction strength | C16Y

Variants of: B6
Conditions: with tfp11_human TFIP11, Q9UBB9

Row | effect of a mutation on the interaction | Variant
14 | with no effect | E202K

Variants of: B6
Conditions: with tfp11_human TFIP11, Q9UBB9
Remark: another data set of the same source

Row | effect of a mutation on the interaction | Variant
15 | with no effect | R373C

Variants of: B7
Conditions: with rbpms_human RBPMS

Row | effect of a mutation on the interaction | Variant
16 | with no effect | R76Q

Variants of: B7
Conditions: with mdfi_human MDFI
Target sequence in this assay (Q99750 whole entry): as the sequence (Q99750 whole entry) above

Row | effect of a mutation on the interaction | Variant
17 | disrupting interaction strength | R76Q

Variants of: B8
Conditions: with kr109_human KRTAP10-9, P60411

Row | effect of a mutation on the interaction | Variant
18 | disrupting interaction strength | C16Y

Variants of: B9
Conditions: with trim1_human MID2, Q9UJV3

Row | effect of a mutation on the interaction | Variant
19 | with no effect | D399E
